Source: the supplement of paper PMC9732359
± gives the uncertainty stated by the source.

Test: protein stability index of a GFP-peptide fusion (yeast GPS) (PSI 1-4); higher = more stable; sorted into four equal gates, so the index is relative within each strain
Procedure, shortened: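 Tiled 17-residue yeast protein peptides were fused downstream of GFP in a plasmid that also expresses Cherry, and the pooled library was carried in yeast. Mid-log cultures in leucine-free medium were sorted into four equal gates by GFP/Cherry fluorescence ratio, and plasmids from each gate were PCR-amplified and Illumina-sequenced, with reads assigned to strains by barcodes. The protein stability index for each peptide was each gate's read frequency times its gate number, summed.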

Sequence | protein stability index (doa10∆) | protein stability index (pdr5∆) | protein stability index (san1∆) | protein stability index (ubr1∆)
FGYDIPLLDIVLKADRS [YML103C/NUP188] | 2.14 ± 0.061 | 2.81 ± 0.073 | 2.82 ± 0.068 | 2.66 ± 0.057
FHILLKLILEWVAPQES [ECM29] | – | 2.08 ± 0.27 | 1.53 ± 0.17 | 1.77 ± 0.14
FHTSFSAVVGPNGSGKS [SMC4] | 3.09 ± 0.089 | 3.18 ± 0.084 | 3.35 ± 0.085 | 3.37 ± 0.12
FIEDLAPEQQVQQFAQL [UBP6] | 2.79 ± 0.059 | 3.02 ± 0.046 | 3.04 ± 0.049 | 2.98 ± 0.037
FIFQIIEITNSNDLCSQ [SRB8] | 1.39 ± 0.059 | 1.62 ± 0.049 | 1.71 ± 0.1 | 1.21 ± 0.075
FILADAGLEITSDNLLT [RPP1B] | 2.55 ± 0.052 | 2.77 ± 0.054 | 2.65 ± 0.076 | 2.73 ± 0.049
FIRHVAKLNYKNLNPAS [ECM29] | 2.49 ± 0.15 | 1.16 ± 0.1 | – | 1.03 ± 0.076
FIRYDVKTPKKTKYILQ [CSN12] | 2.34 ± 0.048 | 2.29 ± 0.048 | 1.78 ± 0.057 | 2.35 ± 0.051
FISYHDKYLCMLKTCVF [NUT1] | 2.67 ± 0.057 | 2.95 ± 0.064 | 3.03 ± 0.061 | 2.13 ± 0.042
FITNVQSISQNSSSSTP [SWI1] | 2.38 ± 0.069 | 2.63 ± 0.063 | 2.43 ± 0.064 | 2.44 ± 0.05
FKAEKLQIVNQLPANMV [RPC17] | 3.36 ± 0.085 | 3.07 ± 0.068 | 3.03 ± 0.071 | 3.13 ± 0.056
FKAIHGSQLRLSEWEEY [YCS4] | 1.27 ± 0.058 | 1.58 ± 0.05 | 2 ± 0.12 | 1.29 ± 0.029
FKAMEDVIAWKNVLANS [ITC1] | – | 2.95 ± 0.16 | 3.55 ± 0.078 | 3.49 ± 0.16
FKKSKIDHINEESWEKV [SCL1] | 2.78 ± 0.062 | 3.05 ± 0.067 | 2.84 ± 0.049 | 2.69 ± 0.039
FKLPKKFPPPTPLLENI [BRR2] | 2.44 ± 0.062 | 2.72 ± 0.067 | 2.31 ± 0.061 | 2.71 ± 0.048
FKLSSESVIEQIVKYAR [RPS13] | 2.54 ± 0.1 | 2.97 ± 0.11 | 2.63 ± 0.097 | 2.72 ± 0.043
FKNTRETAQAINGWELT [RPL17A] | 1.35 ± 0.031 | 1.58 ± 0.04 | 2.06 ± 0.062 | 1.4 ± 0.033
FKSTMLQVSEKDLFELE [ARP7] | 1.25 ± 0.089 | 2.49 ± 0.11 | 1.1 ± 0.16 | 1.4 ± 0.098
FLARVIKEKFDEFIKTH [IRR1] | 2.79 ± 0.081 | 2.83 ± 0.08 | 2.8 ± 0.059 | 2.88 ± 0.074
FLELTRRADVKTATVKI [RPL38] | 1.67 ± 0.05 | 1.77 ± 0.041 | 2.02 ± 0.077 | 1.2 ± 0.042
FLKEKDTVAELQAQLDY [FAS2] | 2.88 ± 0.091 | 3.07 ± 0.11 | 3.15 ± 0.051 | 3.02 ± 0.067

Sequence | protein stability index (doa10∆) | protein stability index (pdr5∆) | protein stability index (san1∆) | protein stability index (ubr1∆)
FLKYYGAHKFLDTYLPE [SIR2] | 1.66 ± 0.06 | 1.77 ± 0.061 | 1.37 ± 0.1 | 1.67 ± 0.052
FLLKAYINVSRGTDIDR [SRB5] | – | – | – | 3.08 ± 0.22
FLLVPSKQVQVSQQPLS [ECM29] | 1.81 ± 0.092 | 1.92 ± 0.072 | 1.42 ± 0.11 | 2.17 ± 0.043
FLNEARDKAGRLAEVNL [RPO21] | 2.05 ± 0.074 | 1.55 ± 0.054 | 2.06 ± 0.13 | 1.47 ± 0.055
FLNHAFDYMNRYWVQKE [CDC53] | 2.1 ± 0.056 | 2.48 ± 0.056 | 1.89 ± 0.067 | 1.94 ± 0.046
FLSQGLHVVITLLREVV [CSN12] | 1.49 ± 0.06 | 1.73 ± 0.059 | 1.91 ± 0.093 | 2.13 ± 0.057
FLYEILSSLKSFAIYSS [SRB8] | 1.24 ± 0.053 | 1.16 ± 0.038 | 1.34 ± 0.099 | 1.14 ± 0.047
FMHDPSVFYNIANMVLP [SIR2] | 2 ± 0.05 | 2.03 ± 0.04 | 1.85 ± 0.054 | 1.7 ± 0.036
FMRQNLEWNMANLLFKK [RPC82] | 2.82 ± 0.11 | 1.94 ± 0.055 | 2.49 ± 0.082 | 2.85 ± 0.063
FNFVLLGQIGACHVEVP [COB] | 1.43 ± 0.085 | 1.88 ± 0.071 | 1.2 ± 0.17 | 1.6 ± 0.089
FNLISNAGTEKEKESKK [YLR335W/NUP2] | 3.41 ± 0.077 | 3.35 ± 0.063 | 3.44 ± 0.044 | 3.45 ± 0.068
FNNQGKLDLFKYFTELS [MED1] | 3.07 ± 0.092 | 2.83 ± 0.072 | 2.92 ± 0.056 | 2.88 ± 0.092
FNRENKVSPADAAKKAL [RPS26A] | 3.42 ± 0.13 | 3.01 ± 0.14 | 3.17 ± 0.048 | 3.4 ± 0.073
FNTNFDDEFGDLDAVFF [SNF6] | 3 ± 0.076 | 2.96 ± 0.059 | 2.77 ± 0.054 | 3.01 ± 0.035
FPLCVHLVSNELEQLSS [RPL10] | 2.7 ± 0.079 | 2.71 ± 0.065 | 2.52 ± 0.089 | 2.44 ± 0.049
FPRTRFEAQIDSVEFIF [RPN10] | 2.61 ± 0.11 | 2.88 ± 0.066 | 2.62 ± 0.11 | 2.81 ± 0.068
FQKETNMKVTILHGSKS [PRP28] | – | 3.38 ± 0.29 | 3.21 ± 0.093 | 3.18 ± 0.21
FQLIDMKDKEINIQKYN [CSI1] | 2.47 ± 0.17 | 1.98 ± 0.11 | – | 2.57 ± 0.14
FQLVNDVMDELITSSAR [SIR3] | 3.36 ± 0.14 | 2.9 ± 0.087 | 3.42 ± 0.068 | 3.23 ± 0.071
FQQQQQQQQQQQQPQPQ [PGD1] | 2.21 ± 0.11 | 2.7 ± 0.11 | 2.46 ± 0.2 | 3.05 ± 0.21
FQVHERLAPLIKEENDM [ARP7] | – | 3.58 ± 0.17 | 2.97 ± 0.15 | 3.22 ± 0.28
